Source: paper doi:10.1101/756874, “Spontaneous oligomerization of BAK/BAX is suppressed by hetero-dimerization with MCL-1” (bioRxiv, 2019)
One block for each binder: values may come before it. No end group written: not given here. *: point of attachment. TAMRA = 5-carboxytetramethylrhodamine, CN(C)c1ccc2c(-c3ccc(C(=O)*)cc3C(=O)[O-])c3ccc(=[N+](C)C)cc-3oc2c1

B1: BAK (UniProt:Q16611, residues 16–185, C166S) (domain or fragment, human, UniProt Q16611 16-185, looked up)
chain: EPALPSASEEQVAQDTEEVFRSYVFYRHQQEQEAEGVAAPADPEMVTLPLQPSSTMGQVGRQLAIIGDDINRRYDSEFQTMLQHLQPTAENAYEYFTKIATSLFESGINWGRVVALLGFGYRLALHVYQHGLTGFLGQVTRFVVDFMLHHSIARWIAQRGGWVAALNLGN
notes: human BAK, residues 16-185, without the short disordered N-terminal segment and the C-terminal transmembrane helix; cysteine mutated to serine; Monomeric in buffer, oligomeric in detergent; the same construct in all experiments; Theoretical mass 19217.64 Da; also called 'wild-type' BAK (no cysteines); source: E. coli BL21(DE3), purified (chitin resin, intein self-cleavage with DTT, SEC); not …
B5: MCL-1 (UniProt:Q07820, residues 168–327, C286S) (domain or fragment, human)
chain: GSEEEEDELYRQSLEIISRYLREQATGAKDTKPMGRSGATSRKALETLRRVGDGVQRNHETAFQGMLRKLDIKNEDDVKSLSRVMIHVFSDGVTNWGRIVTLISFGAFVAKHLKTINQESSIEPLAESITDVLVRTKRDWLVKQRGWDGFVEFFHVEDLEGG
notes: extra GS left at the N-terminus after removal of the tag with thrombin; human MCL-1, residues 168-327, without the disordered N-terminus and the C-terminal transmembrane region; Theoretical mass 18409.74 Da; source: E. coli C41(DE3), purified (Ni-NTA, thrombin cleavage, cation exchange, SEC); not shown: His6, N-terminal, cleaved

Columns and labels:
Settings in all cases: both partners purified
[1] = target: B5; test: fluorescence polarisation; kinetics; BAK and MCL-1 pre-incubated in PS20 (20xCMC), then dye-labelled BH3 peptide added; change in TAMRA fluorescence polarisation fitted to a single exponential
[2] = target: B5; test: stopped-flow association kinetics + other: out-competition dissociation kinetics; affinities of BH3 peptides for MCL-1 in buffer without detergent (Table 1); how Kd was obtained is not told in the text shown
[3] = target: B5; test: out-competition dissociation kinetics (fluorescence); pre-formed equimolar complex of MCL-1 and TAMRA-labelled BH3 peptide diluted into 50–400 molar excess of un-labelled PUMABH3; TAMRA fluorescence intensity or polarisation; manual mixing or stopped-flow; buffer without detergent
[4] = target: B5; test: SEC; proteins pre-incubated in detergent (PS20, C12E8 and others, at the multiples of CMC given in the legends); Superdex 200 Increase 10/300 GL, 50 mM sodium phosphate pH 7.0
[5] = target: B1; test: as above
[6] = target: T1, BAX (UniProt:Q07812, residues 1–171, C62S, C126S) (human, UniProt Q07812 1-171, C62S | C126S); test: native MS; 5 μM total protein (equimolar), 100 mM ammonium acetate pH 7.0, PS20 5xCMC, at least 3 h at room temperature
T1 construct: human BAX, residues 1-171, without the C-terminal transmembrane helix; cysteines mutated to serines; Theoretical mass 18933.65 Da; source: E. coli C41(DE3), purified (chitin resin, intein self-cleavage with DTT, SEC); not shown: intein, C-terminal, cleaved
T1 sequence (Q07812 1-171 C62S/C126S, one chain of several): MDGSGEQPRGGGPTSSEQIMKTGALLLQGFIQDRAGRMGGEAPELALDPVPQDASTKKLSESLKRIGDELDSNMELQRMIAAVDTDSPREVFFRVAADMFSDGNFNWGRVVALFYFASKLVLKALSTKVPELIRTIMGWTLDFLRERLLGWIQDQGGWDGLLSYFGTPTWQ

binding result [4]: binds
B3: BIDBH3, TAMRA-labelled 35-residue peptide (UniProt:P55957, residues 76–110) (peptide, UniProt P55957 76-110, looked up)
peptide: {TAMRA}-SESQEDIIRNIARHLAQVGDSMDRSIPPGLVNGLA
notes: source: synthetic peptide, bought: Biomatik

binding result [3]: binds
B4: PUMABH3, un-labeled, recombinant (UniProt:Q9BXH1, residues 125–161, M144A) (peptide, UniProt Q9BXH1 125-161, looked up)
peptide: GVRGEEEQWAREIGAQLRRAADDLNAQYERRRQEEQQ
notes: human PUMA BH3, residues 125-161; theoretical mass 4442.75 Da is printed; not shown: His6, N-terminal, cleaved; GB1, N-terminal, cleaved

The next lines start with the binder.

Binder: B1
half-life (displacement of BAK:MCL-1 hetero-dimers by PUMA) [1]: ~17 min

B2: BAKBH3, TAMRA-labelled 35-residue peptide (UniProt:Q16611, residues 64–98, P64A) (peptide, UniProt Q16611 64-98, looked up)
peptide: {TAMRA}-ALQPSSTMGQVGRQLAIIGDDINRRYDSEFQTMLQ
notes: as for B3
Kd [2]: 0.08 nM | koff [3]: 0.00056 s⁻¹

Binder: B5
binding result [5]: binds | binding result [6]: binds
